Reference: the supplement of paper PMC9170038

Test system: MS2 coat protein
Assay: apparent KD of MS2 coat protein; designed switch direction (-1 OFF switch, 1 ON switch): -1; higher = weaker reporter binding
How it was run: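 Three titration conditions were used: no input, 200 uM small-molecule ligand, and an oligonucleotide input. In each, SNAP-549-labelled MS2 coat protein was raised from 0.7 or 1.5 nM, doubling, to 3 µM over designed RNA switches transcribed on Illumina chips by stalled E. coli RNA polymerase. Curve fits of normalised cluster fluorescence gave values whose per-design median over clusters is the apparent KD.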

[1] = input ligand: microRNA oligo, concentration not stated
[2] = Eterna round: R95, input ligand: microRNA oligo, concentration not stated
[3] = Eterna round: R95, input ligand: FMN 200 uM
[4] = Eterna round: R95, input ligand: none

| Sequence | apparent KD of MS2 coat protein (input ligand: FMN 200 uM) | apparent KD of MS2 coat protein (input ligand: none) | apparent KD of MS2 coat protein [2] | further results |
| --- | --- | --- | --- | --- |
| GCACGGAAUGCAGGAUAUCUGUGCGAUUAGCUCAGAGAAGGGCACAUGAGGAUCACCCAUGUGUAUAAAACACAAAAUCCGUGC [Eli exng1 - 067] (Eterna round: R96, puzzle: Exclusion NG 1) | 0.0135 µM | 0.0138 µM |  | apparent KD of MS2 coat protein [1]: 0.00771 µM |
| GGGUCACAUGAGGAUCACCCAUGUGAGGAUAUGAUACUAUGUACUUCGGUACAUAGUAUCAGAAGGCACAUAAA [Ex1-3: 18] (puzzle: Exclusion 1) |  |  | 0.0366 µM |  |
| AACAGUAGAGGAUAUACAUGAGGAUCACCCAUGUGAUAUUUACGUGGCGUACCACGAAGUAGAAGGCUACUGGA [JL Maslow Revisted mod 14] (Eterna round: R96, puzzle: Exclusion 3) | 0.512 µM | 0.0348 µM |  | apparent KD of MS2 coat protein [1]: 0.0325 µM |
| GUAGAGACAGGAUAUACAUGAGGAUCACCCAUGUAAGGAGGAAGAGAGAGGAGAAGGAGUAGAAGGGUCAGAGG [JR_Exclu3_Sub029] (puzzle: Exclusion 3) |  |  | 0.0353 µM | apparent KD of MS2 coat protein [3]: 0.0292 µM; apparent KD of MS2 coat protein [4]: 0.0352 µM |
| UUUUACAAGCUAAGAUCCUACAUGAGGAUCACCCAUGUGGUCCGGUGACGUGAGUCACCGGACUUAGCUCGUCUUGC [salish99_S_TOV1_R5_088] (Eterna round: R97, puzzle: Sensor, turn-off variant 1) | 0.0362 µM | 0.0437 µM |  |  |
| GGUGGACAUGAGGAUCACCCAUGUGAGGAUAUCGGCUGGUACGUGUUGGCUGGCUUCUCGAGAAGGCACAUAGU [Exclusion 1 V65] (puzzle: Exclusion 1) |  |  | 0.0459 µM |  |
| AACCUCGUAGCAGGAUAUUAGAGCUCCCGCAAAUGAGAAGGGCUACGAAACACUUGAGGAUCACCCAAGUACCGUGGUCCUCUA [Mutated MS2 EX1.8] (Eterna round: R96, puzzle: Exclusion NG 1) | 0.0127 µM | 0.0207 µM |  | apparent KD of MS2 coat protein [1]: 0.0176 µM |
| UUAUAAAGUGUGAGGAUAUGCUGGUCGAUAGAUCAGCAGAAGGCACAUGAGGAUCACCCAUGUAAUAUAUUUUA [Mat - Exclusion 4 - JL Mod - D45] (puzzle: Brourd's mod of Exclusion 4) |  |  | 0.05 µM |  |
| UUUUGGCAGGUAAUUAUUAACAUGAGGAUCACCCAUGUGCAUCCAAAAUUACUUUUAGAUCAAGCUCGUCUUAUAUA [JR_STOV1_Sub088] (Eterna round: R97, puzzle: Sensor, turn-off variant 1) | 0.034 µM | 0.0352 µM |  |  |
| UGGUCACAUGAGGAUCACCCAUGUCAGGAUAUCGUCACUGGAGCUGCGGCUCCAGUGACGAGAAGGGACAUAAU [E1/6-A3] (Eterna round: R97, puzzle: Exclusion 1) | 0.162 µM | 0.253 µM |  |  |
| UACUGGACAGGAUAUGUUCUUGAGCACUUGAGGAUCACCCAAGUCAUCAAGAACUCAGGCACAGAAGGGUUUAUGC [salish99_ex5_r4_007] (Eterna round: R97, puzzle: Exclusion 5) | 0.0191 µM | 0.014 µM |  |  |
| AGGAAACAUGAGGAUCACCCAUGUGAGGAUAUUUGAAAGAAAAGAAAAGAAAGAAGAAGAAGAAGGCACAAGAA [Merneith] (Eterna round: R96, puzzle: Exclusion 1) |  |  |  | apparent KD of MS2 coat protein [1]: 0.0238 µM |
| GUUCCGCGAGGAUAUACAGACGGGUCCAAAACGUGUCUCGGACUUGAGGAUCACCCAAGUAGAAGGCGUUUCAG [salish99_ex2_r4_622] (Eterna round: R97, puzzle: Exclusion 2) | 0.0204 µM | 0.0221 µM |  |  |
| AGGUGUAGAGGAUAUACUGCAAAGCACAUGAGGAUCACCCAUGUCCCUCUAUGAAAUUAAGUAGAAGGCUACACCA [Omei Ex5 C5] (Eterna round: R97, puzzle: Exclusion 5) | 0.0886 µM | 0.0771 µM |  |  |
| UUUUACAAGCCAGAUCCUCACAUGAGGAUCACCCAUGUGCUCGUCUGUUUUCGCACUAUCACGUUUGUGAUAGUGCU [Level Boss var2-10] (puzzle: Sensor v3, turn-off variant 1) |  |  | 0.0129 µM | apparent KD of MS2 coat protein [3]: 0.162 µM; apparent KD of MS2 coat protein [4]: 0.288 µM |
| UUUUUGUCAGGAUAUGACUAGAUGCACGUUAGUGCAUCUACUUAGAAGGGACAUGAGGAUCACCCAUGUAUUCC [Bring Us a Shrubbery-12] (puzzle: Exclusion 4) |  |  | 0.0273 µM |  |
| GGCGUCGUGUAGGAUAUGAAUUGAAAGGCUUCGUCAGAAGGGCACACAUGAGGAUCACCCAUGUGACAGCUGAG [Eternabot (L1) Solution 78] (Eterna round: R97, puzzle: Exclusion 6) | 0.02 µM | 0.0199 µM |  |  |
| UUUGGUUUGCGAGGAUAUGCUUUUAGUAAGUUAGCAGAAGGCGCGUUACAUAGAACCUCUUGUUACAUGAGGAUCACCCAUGUU [JR_ExcNG1_Sub037] (Eterna round: R96, puzzle: Exclusion NG 1) |  |  |  | apparent KD of MS2 coat protein [1]: 0.0773 µM |
| GUCGUGCAGCUUUGCUGUACGAGUACAUGAGGAUCACCCAUGUAGGAUAUGGUACGCUUUGCGUGCCAGAAGGGCGUGCGUUGG [salish99_ExNG3_r04_005] (Eterna round: R96, puzzle: Exclusion NG 3) | 0.0302 µM | 0.0346 µM |  | apparent KD of MS2 coat protein [1]: 0.024 µM |
| AAUAACAGAGGAUAUACUAUUUUAUGUGUUUGUUAUUUUAAACAUGAGGAUCACCCAUGUAGAAGGCUGAGUAA [JMF 29] (puzzle: Exclusion 2) |  |  | 0.0219 µM |  |
| UGUCUACAUGAGGAUCACCCAUGUCAGGAUAUGCUCGAUAUAUGGAAACAUAUAUCGAGCAGAAGGGACUAGCG [Jieuxxlusion 5 - Jieux - Exclusion 1] (Eterna round: R97, puzzle: Exclusion 1) | 0.0535 µM | 0.0284 µM |  |  |
| CUAGAUCUUCGGAUCUAGUACAUGAGGAUCACCCAUGUUACGAGCUGAUUUUCAUACAAGCUUUUUGCUCGUCUUAU [Sensor v3 - Turn-off variant 1 - 29] (puzzle: Sensor v3, turn-off variant 1) |  |  | 0.297 µM | apparent KD of MS2 coat protein [3]: 0.0381 µM; apparent KD of MS2 coat protein [4]: 0.0413 µM |
| GAUGCUUCGGCAUCUACAAGCUUUUUGCUCGUCUUAUUAACAUGAGGAUCACCCAUGUACAAGAGACCUCAUGUAUU [Sensor v3 - turn-off variant 2 - 12] (puzzle: Sensor v3, turn-off variant 2) |  |  | 0.0143 µM | apparent KD of MS2 coat protein [3]: 0.125 µM; apparent KD of MS2 coat protein [4]: 0.202 µM |
| CUAAUUUGUGUGAGGAUAUGGCGACAGGAGACUAGCCAGAAGGUACAUGAGGAUCACCCAUGUAAGGUCCUCUC [Eternabot (L1) Solution 86] (Eterna round: R97, puzzle: Brourd's mod of Exclusion 4) | 0.0168 µM | 0.0163 µM |  |  |
| CAAUAUUACUGAGGAUAUCCUAGUGUAUUUCAGGGAGAAGGCGGACUCAACAUGAGGAUCACCCAUGUAAGACGGGUACUAGAU [Ex NG1 #17] (Eterna round: R96, puzzle: Exclusion NG 1) | 0.0893 µM | 0.0814 µM |  | apparent KD of MS2 coat protein [1]: 0.0427 µM |
| UCUUUACAUGAGGAUCACCCAUGUCAGGAUAUCAACUUUUGGGACUUCGGAUAUAAGAUGAGAAGGGACACCGG [Eternabot (L2) Solution 53] (Eterna round: R97, puzzle: Exclusion 1) | 0.0192 µM | 0.0194 µM |  |  |
